# Data taken from PMC8748874, “Structures of the human peroxisomal fatty acid transporter ABCD1 in a lipid environment” (Communications Biology, 2022).
# Tested on: T1, Nc1ncnc2c1ncn2[C@@H]1O[C@H](COP(=O)(O)OP(=O)(O)OP(=O)(O)O)[C@@H](O)[C@H]1O
# T1 construct: full length, codon-optimized synthetic gene; C-terminal eYFP-Rho1D4 tag cut off with 3C protease; HEK293 Flp-In TREX; homodimer; in DDM/CHS, liposomes or MSP1D1 nanodiscs
# Assay: molybdate-based colorimetric ATPase assay
# Type: biochemical, Homo sapiens
# Details: BPL/Chol liposomes and nanodiscs, 10 mM MgCl2, pH 7.5, 37 °C, ATP 0.0625 to 8 mM
substance,measurement,value
ABCD1 (ALDP) (Homo sapiens),Km,about 0.3 mM
